Reference: the supplement of paper PMC9112550, “Optimization of the antimicrobial peptide Bac7 by deep mutational scanning” (BMC Biology, 2022)

The sequences below were run on Escherichia coli TOP10 (assay: shrunken log2 fold change of peptide-encoding DNA abundance (4.5 h post-induction vs induction); higher = less antimicrobial activity (less host growth inhibition)). Conditions: time post-induction: 4.5 h; library: site-saturation at positions 5, 18, 19, 20.
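Also: peptides expressed intracellularly from a pBAD plasmid library in pooled LB shake-flask culture, induced with 0.3% L-arabinose, DNA abundance read by NGS, three biological replicates, DESeq2 with apeglm shrinkage.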

In order of rising “shrunken log2 fold change” value:
1. RRIRYRPPRLPRPRPRPYAPPRP  -0.784
2. RRIRYRPPRLPRPRPRPNYWPRP  -0.698
3. RRIRVRPPRLPRPRPRPFYNPRP  -0.565
4. RRIRTRPPRLPRPRPRPKSNPRP  -0.448
5. RRIRERPPRLPRPRPRPYWMPRP  -0.438
6. RRIRFRPPRLPRPRPRPSDGPRP  -0.391
7. RRIRFRPPRLPRPRPRPFLHPRP  -0.329
8. RRIRSRPPRLPRPRPRPGPYPRP  -0.325
9. RRIRPRPPRLPRPRPRPYHMPRP  -0.316
10. RRIRTRPPRLPRPRPRPRQYPRP  -0.302
11. RRIRNRPPRLPRPRPRPWVHPRP  -0.288
12. RRIRCRPPRLPRPRPRPECYPRP  -0.238
13. RRIRQRPPRLPRPRPRPTYVPRP  -0.161
14. RRIRIRPPRLPRPRPRPTLKPRP  -0.132
15. RRIRFRPPRLPRPRPRPKVLPRP  -0.128
16. RRIRIRPPRLPRPRPRPYLCPRP  -0.0937
17. RRIRSRPPRLPRPRPRPCCWPRP  -0.0914
18. RRIRMRPPRLPRPRPRPFQIPRP  -0.0803
19. RRIRYRPPRLPRPRPRPWNDPRP  -0.0728
20. RRIRSRPPRLPRPRPRPDGFPRP  -0.0636
21. RRIRRRPPRLPRPRPRPRIYPRP  -0.0573
22. RRIRSRPPRLPRPRPRPRRYPRP  -0.0572
23. RRIRFRPPRLPRPRPRPIMAPRP  -0.0564
24. RRIRIRPPRLPRPRPRPEKKPRP  -0.0556
25. RRIRLRPPRLPRPRPRPQGFPRP  -0.0528
26. RRIRCRPPRLPRPRPRPFRNPRP  -0.0491
27. RRIRLRPPRLPRPRPRPAVGPRP  -0.0315
28. RRIRPRPPRLPRPRPRPKAYPRP  -0.029
29. RRIRSRPPRLPRPRPRPKSVPRP  -0.0236
30. RRIRLRPPRLPRPRPRPCHYPRP  -0.0212
31. RRIRGRPPRLPRPRPRPGEWPRP  -0.0156
32. RRIRYRPPRLPRPRPRPVLTPRP  -0.0151
33. RRIRIRPPRLPRPRPRPWVAPRP  -0.00986
34. RRIRSRPPRLPRPRPRPQHFPRP  -0.00646
35. RRIRSRPPRLPRPRPRPFHGPRP  -0.00545
36. RRIRNRPPRLPRPRPRPRNAPRP  0.0122
37. RRIRTRPPRLPRPRPRPPVWPRP  0.0152
38. RRIRPRPPRLPRPRPRPQMWPRP  0.0355
39. RRIRDRPPRLPRPRPRPVHHPRP  0.0594
40. RRIRSRPPRLPRPRPRPTLCPRP  0.0788
41. RRIRGRPPRLPRPRPRPKEQPRP  0.0833
42. RRIRQRPPRLPRPRPRPCDQPRP  0.0849
43. RRIRPRPPRLPRPRPRPEVSPRP  0.0949
44. RRIRWRPPRLPRPRPRPEHSPRP  0.114
45. RRIRHRPPRLPRPRPRPFWPPRP  0.131
46. RRIRTRPPRLPRPRPRPYPVPRP  0.154
47. RRIRKRPPRLPRPRPRPPYGPRP  0.156
48. RRIRSRPPRLPRPRPRPCATPRP  0.162
49. RRIRLRPPRLPRPRPRPCNSPRP  0.165
50. RRIRGRPPRLPRPRPRPPKEPRP  0.176
51. RRIRVRPPRLPRPRPRPAQWPRP  0.188
52. RRIRRRPPRLPRPRPRPFGFPRP  0.197
53. RRIRPRPPRLPRPRPRPDYWPRP  0.207
54. RRIRIRPPRLPRPRPRPPRLPRP  0.256
55. RRIRIRPPRLPRPRPRPAPLPRP  0.276
56. RRIRMRPPRLPRPRPRPNGEPRP  0.278
57. RRIRARPPRLPRPRPRPQHPPRP  0.29
58. RRIRHRPPRLPRPRPRPECGPRP  0.322
59. RRIRVRPPRLPRPRPRPRYWPRP  0.338
60. RRIRTRPPRLPRPRPRPQLEPRP  0.341
61. RRIRDRPPRLPRPRPRPTFTPRP  0.347
62. RRIRYRPPRLPRPRPRPRPKPRP  0.374
63. RRIRMRPPRLPRPRPRPTTVPRP  0.376
64. RRIRRRPPRLPRPRPRPSFWPRP  0.38
65. RRIRPRPPRLPRPRPRPATRPRP  0.442
66. RRIRDRPPRLPRPRPRPKFWPRP  0.442
67. RRIRERPPRLPRPRPRPACAPRP  0.455
68. RRIRARPPRLPRPRPRPTDAPRP  0.607
69. RRIRTRPPRLPRPRPRPPWAPRP  0.613
70. RRIRGRPPRLPRPRPRPLSGPRP  0.675
71. RRIRLRPPRLPRPRPRPPSQPRP  0.756
72. RRIRKRPPRLPRPRPRPDFWPRP  1.06
73. RRIRMRPPRLPRPRPRPGMAPRP  1.19
74. RRIRGRPPRLPRPRPRPTVTPRP  1.34
75. RRIRARPPRLPRPRPRPETPPRP  1.65
